Results reported in PMC10138814, “Structural Insights into the Binding of Red Fluorescent Protein mCherry-Specific Nanobodies” (International Journal of Molecular Sciences, 2023).

Legend:
Conditions in all cases: both partners purified
[1] = biological target: T1, mCherry (Discosoma sp. DsRed-derived, engineered …, chromophore (residues not given)); assay: BLI; His-SUMO-LaM nanobody (100 nM) loaded on Ni-NTA biosensors; mCherry or DsRed in solution; 20 mM HEPES pH 7.4, 150 mM NaCl, 0.005% Tween-20; association 600 s, dissociation 600 s; 1:1 global fit
T1 construct: Engineered monomeric derivative of DsRed; also called His10-TEV site-mCherry (before cleavage); H10T-mCherry; source: E. coli BL21(DE3), purified (Ni-NTA, TEV cleavage on the column); not shown: His10, N-terminal, cleaved

[2] = biological target: T1, mCherry; assay: ITC; 100 uM nanobody in the syringe into 10 uM mCherry (or 8.9 uM mCherry-LaM1 or mCherry-LaM3 complex) in the cell; 25 °C; one set of sites
[3] = biological target: T2, DsRed (Discosoma sp., UniProt Q9U6Y8); assay: BLI; His-SUMO-LaM nanobody (100 nM) loaded on Ni-NTA biosensors; mCherry or DsRed in solution; 20 mM HEPES pH 7.4, 150 mM NaCl, 0.005% Tween-20; association 600 s, dissociation 600 s; 1:1 global fit
T2 construct: DsRed red fluorescent protein; PDB 1ZGO was used for structural alignment; His6-SUMO-DsRed printed as 39.6 kD; also called tetrameric DsRed protein; His6-SUMO-DsRed (before cleavage); source: prokaryotic expression system, purified (tags removed by ULP1 on the column); not shown: His6, N-terminal, cleaved; SUMO, N-terminal, cleaved
T2 sequence (Q9U6Y8 whole entry): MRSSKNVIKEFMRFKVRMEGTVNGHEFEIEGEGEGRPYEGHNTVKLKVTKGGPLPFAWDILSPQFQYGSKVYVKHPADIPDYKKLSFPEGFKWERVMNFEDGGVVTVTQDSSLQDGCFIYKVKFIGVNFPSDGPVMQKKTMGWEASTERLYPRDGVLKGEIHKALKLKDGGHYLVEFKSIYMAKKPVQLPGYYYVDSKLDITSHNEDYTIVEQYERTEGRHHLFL

B1: His-SUMO-LaM1 (VHH)
VHH: QVQLVESGGGLVQAGDSLRLSCAASGRTFENYAMGWFRQAPGKEREFVGAVSWGGGRTYYADNVKGRFTISRDNAKKNTVYLQMNSLKPEDTAVYYCAAKSVLTIATMRVPDEYNYWGQGTQVTVS
notes: held in PDB 8IM1; Captured by its His tag on NTA biosensors in BLI; vector pET28a-SUMO; also called Sumo-His tagged LaM1; source: E. coli BL21(DE3), purified (Ni-NTA, eluted with imidazole); not shown: His, N-terminal, kept; SUMO, N-terminal, kept
- Kd [1]: 12.9 nM
- koff [1]: 0.00117 s⁻¹
- kon [1]: 91300 M⁻¹ s⁻¹

B2: LaM1 (VHH)
VHH: QVQLVESGGGLVQAGDSLRLSCAASGRTFENYAMGWFRQAPGKEREFVGAVSWGGGRTYYADNVKGRFTISRDNAKKNTVYLQMNSLKPEDTAVYYCAAKSVLTIATMRVPDEYNYWGQGTQVTVS
notes: Tag-removed form; also called llama nanobody against mCherry 1; source: E. coli BL21(DE3), purified (Ni-NTA, ULP1 cleavage on the column, ion exchange or size exclusion chromatography); not shown: His, N-terminal, cleaved; SUMO, N-terminal, cleaved
- Kd [2]: 289 nM
- dH [2]: -28.7 ± 0.906 kcal/mol
- stoichiometry N [2]: 1 sites

B3: His-SUMO-LaM8 (VHH)
VHH: QVQLVESGGGLVQAGGSLRLSCAVSGRPFSEYNLGWFRQAPGKEREFVARIRSSGTTVYTDSVKGRFSASRDNAKNMGYLQLNSLEPEDTAVYYCAMSRVDTDSPAFYDYWGQGTQVTVST
notes: held in PDB 8IM0; Captured by its His tag on NTA biosensors in BLI; vector pET28a-SUMO; also called Sumo-His tagged LaM8; source: E. coli BL21(DE3), purified (Ni-NTA, eluted with imidazole); not shown: His, N-terminal, kept; SUMO, N-terminal, kept
- Kd [1]: 36.8 nM
- koff [1]: 0.00926 s⁻¹
- kon [1]: 252000 M⁻¹ s⁻¹

B4: LaM8 (VHH)
VHH: QVQLVESGGGLVQAGGSLRLSCAVSGRPFSEYNLGWFRQAPGKEREFVARIRSSGTTVYTDSVKGRFSASRDNAKNMGYLQLNSLEPEDTAVYYCAMSRVDTDSPAFYDYWGQGTQVTVST
notes: Tag-removed form; also called llama nanobody against mCherry 8; source: E. coli BL21(DE3), purified (Ni-NTA, ULP1 cleavage on the column, ion exchange or size exclusion chromatography); not shown: His, N-terminal, cleaved; SUMO, N-terminal, cleaved
- Kd [2]: 199 nM
- dH [2]: -11.2 ± 1.51 kcal/mol
- stoichiometry N [2]: 0.842 sites

B5: His-SUMO-LaM3 (VHH)
VHH: QVQLVQSGGGLVQAGGSLRLSCAASGRTFSDIAVGWFRQTPGKEREFVAAISWSGLIINYGDSVEDRFTISRDNAKSAVYLQMNSLKPEDTAVYYCAARIGMNYYYAREIEYPYWGQGTQVTVSK
notes: held in PDB 8ILX; Captured by its His tag on NTA biosensors in BLI; vector pET28a-SUMO; also called Sumo-His tagged LaM3; source: E. coli BL21(DE3), purified (Ni-NTA, eluted with imidazole); not shown: His, N-terminal, kept; SUMO, N-terminal, kept
- Kd [1]: 30.6 nM
- koff [1]: 0.00324 s⁻¹
- kon [1]: 106000 M⁻¹ s⁻¹
- Kd [3]: 7130 nM
- koff [3]: 0.000443 s⁻¹
- kon [3]: 62.2 ± 1.02 M⁻¹ s⁻¹

B6: LaM3 (VHH)
VHH: QVQLVQSGGGLVQAGGSLRLSCAASGRTFSDIAVGWFRQTPGKEREFVAAISWSGLIINYGDSVEDRFTISRDNAKSAVYLQMNSLKPEDTAVYYCAARIGMNYYYAREIEYPYWGQGTQVTVSK
notes: Tag-removed form; also called llama nanobody against mCherry 3; source: E. coli BL21(DE3), purified (Ni-NTA, ULP1 cleavage on the column, ion exchange or size exclusion chromatography); not shown: His, N-terminal, cleaved; SUMO, N-terminal, cleaved
- Kd [2]: 13.7 nM
- dH [2]: -13.7 ± 0.157 kcal/mol
- stoichiometry N [2]: 0.913 sites
